From the supplement of paper PMC9170038

Assays:
MS2 coat protein [1] = test: apparent KD of MS2 coat protein, switch ON state; designed switch direction (-1 OFF switch, 1 ON switch): -1; higher = weaker reporter binding; conditions: FMN input: 0 or 200 uM; Eterna round: R93 (includes R88 designs)
How it was run: (§1)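 The buffer was 100 mM Tris-HCl pH 7.5 with 80 mM KCl and 4 mM MgCl2, used without or with constant ligand. In it, RNA switches transcribed on-chip from Illumina sequencing clusters were titrated with SNAP-549-labelled MS2 coat protein in twofold steps from 0.7 or 1.5 nM to 3 µM. Apparent KD for each design is the median of its normalised cluster binding-curve fits.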

MS2 coat protein [2] = test: apparent KD of MS2 coat protein, switch OFF state (with FMN for OFF switches, without FMN for ON switches); designed switch direction (-1 OFF switch, 1 ON switch): -1; higher = weaker reporter binding; conditions: FMN input: 0 or 200 uM; Eterna round: R93 (includes R88 designs)
How it was run: as §1

Sequence | apparent KD of MS2 coat protein (MS2 coat protein [1]) [nM] | apparent KD of MS2 coat protein (MS2 coat protein [2]) [nM]
GGCACUGUAGGAUAUACAUGAACAAUUGGCAUCCUCAGUCCACAUGAGGAUCACCCAUGUAGAAGGAUAGAAAA [Besorees] | 131 | 91.1
GGCUAGUCAGGAUAUACGAACAUGUCAAAAGACGUGAAGGGACAUGAGGAUCACCCAUGUAGAAGGGACUAGCG [salish99-ex2-13] | 32.8 | 132
GGGCCACAUGAGGAUCACCCAUGUAAGGAUAUGCUAGGGAUGGAAAAAAUUACGCAAAGCAGAAGGUACUAAAG [Janelle Amethyst 18 Mod 9 - Jieux - Exclusion 1] | 26.9 | 35.5
GGGUAGUCAGGAUAUACAAACAUGUCAAAAGACGUGAAAAAACAUGAGGAUCACCCAUGUAGAAGGGACUACCC [Mat - Exclusion 2 - JL mod - D20] | 17.8 | 15
GGUUGACGAGGAUAUACAUGAGGAUCACCCAUGUGAGAGAAAAAAGUGAGAAAGAAAAGUAGAAGGCGUUGACG [salish99-ex3-59] | 36.9 | 91.8
GGUUGGCGAGGAUAUACAUGAGGAUCACCCAUGUGAGAGAAAAAAGUGAGGAGGAGGAGUAGAAGGCGCUGACG [salish99-ex3-18] | 28.4 | 97
GGUUGUGAAGGAUAUACAUGAGGAUCACCCAUGUGAGAGAAAAAAGUGAGAAAGAAAAGUAGAAGGUCAUGACG [salish99-ex3-64] | 30.8 | 76.2
UAAAACAGAGGAUAUACAUGAGGAUCACCCAUGUAAAAAUGUAGAAGGCUGAAAUAAAUAAGAAGGAAAUAAAA [Meechl Ex3 R2 m1] | 24.8 | 25.6
UAAAGACAUGAGGAUCACCCAUGUGAGGAUAUAGGUGUAUGCAAAAAAAAGCAAAAAACUAGAAGGCACAGAAA [JR_Exc001_Sub304] | 59.6 | 68.9
UAUGAGCGAGGAUAUGCUUGGGACGUCGUUCUUGCGGCGAGACAUGAGGAUCACCCAUGUAGAAGGCGCGAGCG [Harteesian Twist] | 17.4 | 16.7
UCAGGUGGAGGAUAUACAGCUCGAUCCUGGAAUAAAACGGCACAUGAGGAUCACCCAUGUAGAAGGCCACAAAA [Texeussoat] | 18.9 | 55.1
UCCAGACAUGAGGAUCACCCAUGUCAGGAUAUCUACAGAACCUCAUGUAAAAAACUGUAGAGAAGGGAUAUGAA [Design 97: Pseudoknot G] | 16.7 | 16
UCCUCACAUGAGGAUCACCCAUGUGAGGAUAUGUACAUCAGGAAAAAAAAACUGAUGUACAGAAGGCACAUGAA [Design 10: Super Stable G-C 3] | 13.3 | 16.5
UCGAUGUCAGGAUAUGUGUAAAGAAUAAAACAAAUAACAACACAGAAGGGACAUGAGGAUCACCCAUGUUACGA [May 42] | 42.2 | 86.2
UUAGAACAUGAGGAUCACCCAUGUGAGGAUAUGCAAUACUAAAAUUAAGAUAAUUAUAGCAGAAGGCACGUAGU [JR_EXc001_Sub804] | 33.2 | 40.9
